B1: STK38L (parent)
chain: NWKETLVFPPEVPISEKAKDLILR
B2: CD69 (parent)
chain: FVAENSSLHPESGQENDATSPHFS

Variants of: B1
Test: protein stability index of a GFP-peptide fusion (GPS, HEK-293T) (PSI 1-6); higher = more stable
Conditions: c terminus: a fixed tail appended
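Note: lentivirally expressed fusions sorted by FACS into six bins by GFP to DsRed ratio, PSI derived from sequencing read proportions per bin multiplied by bin number.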

Protein stability index: each site, then its substitutions
R24: W 2.11; S 3.31; V 1.91; Y 1.63; T 3.59

Variants of: B2
Test: as above
Conditions: c terminus: a fixed tail appended

Protein stability index of substitutions, site by site:
E15: S 2.11; C 2.57; W 1.95; Q 3.05; H 2.76; L 2.12; G 2.59; I 2.51; T 2.78; P 2.32; N 2.6; A 2.88; V 2.67; Y 2.08; R 2.19; F 1.91; M 2.83; D 3.06; K 2.76
S7: W 3.07; Q 3.37; F 2.27; M 2.22; E 4.06; V 2.73; C 2.46; N 3.3; A 3.13; T 3.24; G 3.29; R 2.13; I 2.39; Y 1.93; L 2.67; D 4.39; H 2.83; K 2.51; P 3.11
A3: N 3.21; L 2.95; H 3.03; I 2.86; W 2.82; K 2.95; F 3.02; V 3.43; D 2.95; E 3.57; R 2.88; G 2.98; P 2.41; Q 3.27; S 2.56; C 2.73; T 3.12; M 3.11; Y 3.02
P10: N 3.63; K 2.98; R 2.56; D 3.32; M 2.46; F 2.48; Q 3.45; G 3.29; H 3.61; T 3.13; E 3.54; C 2.84; I 3.23; S 2.52; V 3.22; W 2.43; A 3.06; L 2.9; Y 3.15
Q14: V 3.2; K 3.13; R 2.76; C 2.95; H 3.47; N 2.87; T 2.99; G 2.58; I 3.04; E 3.51; F 2.84; P 2.66; Y 2.4; D 3.93; M 3.28; A 3.06; S 2.64; W 2.48; L 2.87
D17: E 2.82; I 2.69; H 2.97; Y 2.18; N 2.95; V 2.36; C 2.31; R 2.24; L 2.56; A 3.79; P 2.76; K 2.2; S 2.73; F 2.05; T 2.54; G 2.65; Q 2.32; M 2.46; W 1.92
N5: V 2.96; Q 3.22; R 2.16; M 2.45; P 2.56; I 2.16; K 2.69; C 2.5; T 2.77; W 1.99; A 3.1; E 3.7; D 4.57; F 1.94; H 2.61; L 2.95; Y 2.87; G 3.21; S 2.57
H9: L 2.96; W 1.61; F 2.95; D 3.8; M 3.08; K 3.62; A 3.38; T 3.7; P 3.6; E 4.49; N 2.8; S 3.32; Y 2.88; Q 3.5; G 3.4; I 2.9; V 3.03; R 2.79; C 3.15
N16: D 3.61; E 3.05; S 3.19; T 2.8; Y 2.72; C 2.73; A 2.51; Q 3.37; M 2.56; G 2.88; W 2.11; F 2.81; V 3.13; K 3.29; L 2.81; I 3.01; P 2.6; R 2.66; H 3
G13: C 2.89; T 3.59; A 2.69; N 3.33; E 3.41; H 2.46; P 3.32; K 3.24; V 3.21; Q 3.09; M 3.38; Y 3.06; S 3.31; L 2.49; R 2.49; D 3.4; W 1.97; I 2.61; F 2.69
V2: Q 4.86; N 5.25; G 5.26; H 4; L 5; R 5.36; P 5.46; E 5.5; Y 4.84; T 5.17; M 4.87; D 5.18; C 4.82; S 5.39; A 4.94; K 5.4; I 4.44; W 4.86; F 5.13
A18: C 2.9; E 3.87; D 3.22; G 3.03; F 2.67; H 2.45
S6: G 3.37; T 3.34; I 2.38; F 2.21; P 2.58; M 2.55; E 4.05; D 4.33; Q 3.08; L 1.5; K 2.72; W 2.07; V 2.48; A 2.96; R 2.27; C 2.46; H 3.01; Y 2.85; N 2.69
S12: T 3.14; R 2.38; I 2.86; L 2.46; W 1.83; M 2.87; A 2.99; E 3.83; Q 2.88; F 2.39; D 3.25; P 3.39; C 2.73; V 3.42; N 3.05; K 2.66; G 2.9; H 2.64; Y 2.39
F1: A 4.81; L 5.13; Y 3.64; P 5.51; V 4.96; K 5.78; W 5.2; H 4.98; D 5.78; Q 5.65; T 5.58; I 5.04; C 5.02; G 5.41; M 5.49; R 5.12; N 5.39; E 5.62; S 5.4
E11: Q 2.48; C 1.96; H 2.36; V 2.38; I 2.39; M 2.36; P 2.55; G 2.46; R 2.12; Y 2.22; S 2.52; A 2.51; D 3.22; L 1.6; T 2.84; N 3.21; K 2.35; W 2.05; F 1.82
E4: Y 2.39; M 2.1; L 2.9; T 2.37; R 2.17; P 3.51; G 3.99; Q 3.31; K 2.89; C 1.93; S 2.44; W 3.23; A 2.85; F 2.18; V 3.2; H 2.5; I 2.42; D 2.61; N 2.87
L8: D 3.62; F 2.4; K 2.68; V 3.01; T 3.64; E 3.86; A 3.41; Y 2.28; N 3.65; R 2.49; Q 3.62; I 3.24; P 3.41; G 3.78; C 2.8; H 3.04; W 1.72; M 3.06; S 3.75

Source: the supplement of paper PMC10567573
